Tests used:
[1] = target: T1, rat Nogo-A d20plus region, recombinantly produced in E. coli (rat, UniProt Q9JK11 520-843, limits assumed); assay: ELISA, coated rat d20plus
T1 construct: domain: d20plus; also called rat d20plus; rat peptide d20plus
T1 sequence (looked up): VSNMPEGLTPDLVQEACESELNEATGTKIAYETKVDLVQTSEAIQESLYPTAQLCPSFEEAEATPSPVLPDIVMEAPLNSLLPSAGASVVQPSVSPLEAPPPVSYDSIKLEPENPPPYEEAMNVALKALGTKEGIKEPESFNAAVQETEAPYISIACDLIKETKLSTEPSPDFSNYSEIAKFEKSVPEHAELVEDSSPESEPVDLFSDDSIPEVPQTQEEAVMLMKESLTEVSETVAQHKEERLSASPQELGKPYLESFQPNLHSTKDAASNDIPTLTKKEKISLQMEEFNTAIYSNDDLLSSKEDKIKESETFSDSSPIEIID
Description: (§1) The neurite outgrowth inhibitor Nogo-A contains 3 inhibitory regions. Two are shared with the splice variant Nogo-B (Nogo-66 located between the two transmembrane regions and the NIR domain at the tip of the N-terminus) and one is shared with the splice variant Nogo-C (Nogo-66). The unique, highly inhibitory domain for neurite outgrowth of Nogo-A is located in the exon 3 of Nogo-A and is called delta 20 region (d20; human aa position 566-748) (Oertle et al., J. Neurosci. 23 (2003), 5393-5406). To confirm the binding properties of antibodies NG004 NG034 and to monitor for cross-reactivity to other species like rat, an ELISA with a fragment containing the d20 region plus some additional amino acids C- and N-terminal of the inhibitory region (human aa position 543-866) was performed. This fragment is called rat or human d20plus and is recombinantly produced in E. coli. To examine that the antibody binds strongly to the d20plus region and to compare the binding properties of the subject antibodies NG004 and NG034 to the already known antibodies (11C7 and Ozanezumab) the ELISA was used and EC₅₀ values were compared.
(§2) The ELISA is performed according to a standard protocol (Engvall & Perlmann, J. Immunol. 109 (1972), 129-135, Engvall & Perlmann, Immunochemistry 8 (1971), 871-874). […] The readouts are performed on the Tecan Sparc plate reader.

[2] = target: T2, human Nogo-A d20plus region (human aa position 543-866), recombinantly produced in E. coli (human, UniProt Q9NQC3 543-866); assay: ELISA, coated human d20plus
T2 construct: range 543-866; also called human d20plus; hu d20+
T2 sequence (looked up): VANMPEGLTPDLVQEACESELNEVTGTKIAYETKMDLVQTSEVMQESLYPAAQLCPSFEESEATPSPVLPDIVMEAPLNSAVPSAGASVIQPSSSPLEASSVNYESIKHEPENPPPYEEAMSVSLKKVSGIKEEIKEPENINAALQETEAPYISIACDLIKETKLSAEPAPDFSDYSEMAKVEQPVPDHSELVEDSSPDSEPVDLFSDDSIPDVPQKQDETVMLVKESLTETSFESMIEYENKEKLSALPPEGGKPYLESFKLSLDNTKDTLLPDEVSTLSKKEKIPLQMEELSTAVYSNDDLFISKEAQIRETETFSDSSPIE
Description: as §1, §2

[3] = target: T2, human Nogo-A d20plus region (human aa …); assay: ELISA, plate coated with 3 ug/ml human d20plus
Description: as §1, §2

[4] = target: T3, peptide 35: 137-EPENINAALQETEAP-151 (human); assay: pepscan, 15-mer peptides on nitrocellulose, NG004 at 1 ug/ml
T3 construct: Spotted on a nitrocellulose membrane; The range counts on the d20plus region; also called spot 35
T3 peptide: EPENINAALQETEAP
Protocol: (§3) Epitope mapping of NG004 was performed using scans of overlapping peptides. The sequences of the d20plus region of Nogo-A (aa 543-866 of human Nogo-A) were synthesized as linear 15-mer peptides with an 11 amino acid overlap between individual peptides. Those peptides were spotted onto nitrocellulose membranes (JPT Peptide Technologies, Berlin, Germany). The membrane was activated for 5 min in methanol and washed in TBS for 10 min at RT. Non-specific binding sites were blocked for 2 hours at RT with Roti®-Block (Carl Roth GmbH+Co. KG, Karlsruhe, Germany). NG004 (1 μg/ml) was incubated in Roti®-Block for 3 h at room temperature. Binding of primary antibody was determined using HRP-conjugated donkey anti-human IgG secondary antibody. Blots were developed and evaluated using ECL and ImageQuant 350 detection (GE Healthcare, Otelfingen, Switzerland).

[5] = target: T4, peptide 36: 141-INAALQETEAPYISI-155 (human); assay: as above
T4 construct: Spotted on a nitrocellulose membrane; The range counts on the d20plus region; also called spot 36
T4 peptide: INAALQETEAPYISI
Protocol: as §3

[6] = target: T5, peptide 34: 133-EEIKEPENINAALQE-147 (human); assay: as above
T5 construct: Spotted on a nitrocellulose membrane; The range counts on the d20plus region, not on full-length Nogo-A; also called spot 34
T5 peptide: EEIKEPENINAALQE
Protocol: as §3

[7] = target: T2, human Nogo-A d20plus region (human aa …); assay: ELISA, coated d20plus (human, as read from the context), internal standard

B1: anti-Nogo-A specific human antibody NG034 (antibody, V domains shown)
VH: EVQLVETGGGLVPPGGSLRLSCAASGFTFTNYSMHWVRLAPGKRLEYISAISSDGGDPFYASSVKGRVAISRDNSKKTLYLQMGRLRPEDTAVYYCVSDAFDVWGQGTMVTVSS
VL: EIVLTQSPLSLSVTLGQPASISCRSSQSLLYSNGNTYLNWFQQRPGQSPRRLLYRVSNRDSGVPDRFSGSGSGTHFTLKISRVEAEDVGVYYCMQGTHWPRTFGQGTKVEIK
- EC50 [1]: 0.229 nM
- EC50 [2]: 0.298 nM

B2: anti-Nogo-A specific human antibody NG004 (antibody, V domains shown)
VH: EVQLVESGGGVVQPGRSLRLSCAASGFTFRSHAMHWVRQAPGKGLEWVAVTSYDGTNKYYADSVKGRFTISKDNSKNTLYLQMDSLRVEDTAVYYCARGRAVAGTREDYWGQGTLVTVSS
VL: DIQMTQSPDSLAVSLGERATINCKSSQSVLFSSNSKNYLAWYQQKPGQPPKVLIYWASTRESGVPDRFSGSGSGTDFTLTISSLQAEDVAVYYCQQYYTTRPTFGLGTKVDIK
notes: The neurite outgrowth assay used NG004.h4.m1 (human IgG4 S228P) and NG004.m1 (mouse IgG1); also called NG004.m1; NG004.h4.m1
- EC50 [3]: 0.26 nM
- binding result [4]: binds
- binding result [5]: binds
- binding result [6]: binds

B3: Ozanezumab (antibody, V domains shown)
VH: QVQLVQSGAEVKKPGASVKVSCKASGYTFTSYWMHWVRQAPGQGLEWIGNINPSNGGTNYNEKFKSKATMTRDTSTSTAYMELSSLRSEDTAVYYCELMQGYWGQGTLVTVSS
VL: DIVMTQSPLSNPVTLGQPVSISCRSSKSLLYKDGKTYLNWFLQRPGQSPQLLIYLMSTRASGVPDRFSGGGSGTDFTLKISRVEAEDVGVYYCQQLVEYPLTFGQGTKLEIK
- EC50 [7]: 0.2 nM
